Reference: US20210155711A1

Legend:
[1] = target: human FcγRI (recombinant, polyhistidine-tagged) (human) (UniProt P12314); assay: SPR (BIACORE 3000), His-tagged receptor captured on anti-His IgG, antibody injected; 1:1 steady state fit
[2] = target: human FcγRIIIa (recombinant, Example 1) (human) (UniProt P08637); assay: as above
[3] = target: human FcγRIIa (recombinant, Example 1; allotype not stated) (human) (UniProt P12318); assay: as above
[4] = target: recombinant human FcRn (transmembrane and cytoplasmic domains replaced with a poly-histidine tag) (human) (UniProt P55899); assay: … bead competition: unlabelled test antibody against biotinylated human IgG1 CNT06234 for recombinant FcRn, pH 6.4
Chain of recombinant human FcRn (transmembrane and cytoplasmic domains replaced with a poly-histidine tag) (human) (P55899 other isoform, or with tags, fused parts or gaps, form in doubt): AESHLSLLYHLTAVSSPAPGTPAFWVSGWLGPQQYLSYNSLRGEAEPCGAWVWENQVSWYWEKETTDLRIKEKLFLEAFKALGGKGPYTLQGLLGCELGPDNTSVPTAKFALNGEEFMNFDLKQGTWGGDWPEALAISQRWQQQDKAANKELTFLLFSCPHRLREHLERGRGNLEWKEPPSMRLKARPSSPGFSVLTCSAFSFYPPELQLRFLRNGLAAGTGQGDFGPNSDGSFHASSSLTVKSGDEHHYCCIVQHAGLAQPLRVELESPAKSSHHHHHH

[5] = target: human FcγRIIa (recombinant, Example 1; allotype not stated) (human) (UniProt P12318); assay: … direct binding (avidity) assay: biotinylated test antibody and recombinant His-tagged FcgRIIa on donor and acceptor beads
[6] = target: human FcγRIIa (recombinant, Example 1; allotype not stated) (human) (UniProt P12318); assay: … bead competition: unlabelled test antibody against a biotinylated control antibody (human IgG1 CNT06234 by paragraph 15/paragraph 85; paragraph 86 says 'against IgG2') for recombinant FcgRIIa
[7] = target: human FcγRI (recombinant, polyhistidine-tagged) (human) (UniProt P12314); assay: SPR (BIACORE 3000), His-tagged receptor captured on anti-His IgG, antibody injected; 1:1 kinetic fit
[8] = target: human FcγRIIIa (recombinant, Example 1) (human) (UniProt P08637); assay: as above

Chain of human FcγRIIIa (recombinant, Example 1) (human) (P08637 17-208 F176V limits assumed): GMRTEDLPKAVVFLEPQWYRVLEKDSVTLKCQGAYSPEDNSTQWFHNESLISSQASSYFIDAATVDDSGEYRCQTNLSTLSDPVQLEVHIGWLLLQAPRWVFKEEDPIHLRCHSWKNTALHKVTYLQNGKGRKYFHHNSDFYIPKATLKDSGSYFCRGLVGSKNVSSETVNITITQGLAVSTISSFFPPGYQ
Chain of human FcγRI (recombinant, polyhistidine-tagged) (human) (P12314 16-288 limits assumed): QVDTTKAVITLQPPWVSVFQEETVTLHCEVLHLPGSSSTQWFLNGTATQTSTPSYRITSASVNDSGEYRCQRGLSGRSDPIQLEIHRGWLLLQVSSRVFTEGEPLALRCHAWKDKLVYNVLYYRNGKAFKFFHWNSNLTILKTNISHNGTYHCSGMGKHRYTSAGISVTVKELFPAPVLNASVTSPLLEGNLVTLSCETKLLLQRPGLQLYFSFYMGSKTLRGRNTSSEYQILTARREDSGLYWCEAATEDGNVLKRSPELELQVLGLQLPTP
Chain of human FcγRIIa (recombinant, Example 1; allotype not stated) (human) (P12318 36-218 limits assumed): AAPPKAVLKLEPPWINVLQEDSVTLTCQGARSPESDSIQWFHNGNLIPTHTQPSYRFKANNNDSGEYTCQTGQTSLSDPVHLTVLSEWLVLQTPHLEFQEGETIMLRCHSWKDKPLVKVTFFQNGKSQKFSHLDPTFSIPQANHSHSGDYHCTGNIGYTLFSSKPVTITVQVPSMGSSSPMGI

With “IgG4 A/A (human IgG4 S228P, F234A, L235A, anti-Her2/neu construct) (antibody)” the Kd [1] was 15 µM, the Kd [2] was 55 µM and the Kd [3] was 150 µM. It also gave an IC50 (read off the curve) [4] of 100 µg/mL.
With “IgG2m4 (human IgG2 H268Q, V309L, A330S, P331S, anti-Her2/neu construct) (antibody)” the Kd [1] was 210 µM, the Kd [2] was 95 µM and the Kd [3] was 2.7 µM. For the same substance, the IC50 (read off the curve) [4] was 80 µg/mL, the EC50 (read off the curve) [5] was 0.2 µg/mL and the IC50 (read off the curve) [6] was 30 µg/mL.
“huIgG1 (wild type human IgG1 isotype antibody, anti-Her2/neu construct)” gave a Kd [7] of 0.013 µM, a Kd [3] of 1.7 µM and an IC50 (read off the curve) [4] of 70 µg/mL. It also gave an EC50 (read off the curve) [5] of 0.1 µg/mL and an IC50 (read off the curve) [6] of 6 µg/mL.
“IgG2c4a (human IgG2 H268A, V309L, A330S, P331S, anti-Her2/neu construct) (antibody)” showed a Kd [1] of 160 µM, a Kd [2] of 85 µM and a Kd [3] of 2.2 µM. The IC50 (read off the curve) [4] was 60 µg/mL and the IC50 (read off the curve) [6] was 20 µg/mL.
For “IgG2c4e (human IgG2 P233S, V234A, G237A, P238S, H268A, V309L, A330S, P331S, anti-Her2/neu construct) (antibody)”, the IC50 (read off the curve) [4] was 100 µg/mL.
In the case of “IgG1 Ag (human IgG1 N297A, aglycosylated, anti-Her2/neu construct) (antibody)”, the Kd [1] is reported as 3.7 µM and the IC50 (read off the curve) [4] is reported as 100 µg/mL.
In the case of “IgG2c4b (human IgG2 V234A, G237A, H268Q, V309L, A330S, P331S, anti-Her2/neu construct) (antibody)”, the Kd [1] is reported as 38 µM, the Kd [3] is reported as 170 µM and the IC50 (read off the curve) [4] is reported as 60 µg/mL. The IC50 (read off the curve) [6] was 100 µg/mL.
“huIgG2 (wild type human IgG2 isotype antibody, anti-Her2/neu construct)” was tested, and the Kd [1] was 120 µM, the Kd [2] was 41 µM and the Kd [3] was 1 µM. It also gave an IC50 (read off the curve) [4] of 80 µg/mL, an EC50 (read off the curve) [5] of 0.2 µg/mL and an IC50 (read off the curve) [6] of 50 µg/mL.
With “IgG2c4c (human IgG2 V234A, G237A, H268A, V309L, A330S, P331S, anti-Her2/neu construct) (antibody)” the Kd [7] was 0.044 µM, the Kd [8] was 0.64 µM and the Kd [3] was 19 µM. For the same substance, the IC50 (read off the curve) [6] was 60 µg/mL.
